{"source": "the DeepSol protein solubility set", "data": [{"experiment": "soluble on expression in E. coli; label from the status in PepcDB or PDB records", "values": [{"sequence": "MQYFSPEQQYNAWIVSDLVKQIFHKRAGCSPGIHELAVFAEEHFHIDIDFVFSIIMNIGDIEFALTDEIEKKLSGYLSTLLPYVTADMFETSKANAHAFLSRRHGNAAYHLFVSDDAFMRKQLEHHHHHH", "soluble on expression in E. coli": "soluble"}, {"sequence": "MQYHEIGKTGMKVSSLSFGASSLGGVFHDLKEKEGIQAVFTAIEAGMNFIDVSPYYGHYKAETVLGKALKDIPRDRYYLSTKVGRYGKDGVNTWDYSAKRATESVYESMERLNIDFIDLINVHDIEFADLNQVVNETLPALVELREKGVVGHVGITDLQLENLKWVIDRSPSGTIESVLSFCHYCLCDDKLADFLDYFESKEIGVINASPLSMGLLSERGVPVWHPAPKPLVDACRKAMEHCKAKNYPIEKLAMQFSVSNPKIATTLFSTTNPENVKKNIGFIEEPVDWELVREVREIIGEQQRVSWANS", "soluble on expression in E. coli": "not soluble"}, {"sequence": "MRAVWVLGIDTSCDDTGVGLVRDGKVVVNLVASQVRLHEAFGGVVPELASREHLKALPLLVERALAEAGLRPKDLDLVAATRGPGLIGALLVGYTFAKGMAFALDRPFYAVHHLEGHIAAAWPEGLPPPFLALVASGGHTHLYEVLDLGRYRLLGATRDDAAGEAFDKVARLLGLGFPGGPEVERLAEEAEEAIPFPVPLRGQEGYDFSFSGLKTKALHLVEKGLPKAALAKGFQEAAIAHLAEVVLKAAKDTGHRVLLVAGGVAANRALQERFKEAGLEVHFPPRGLSQDNGAMIALAAWRRHQRGFPPSPLSLGATAYWPLEEA", "soluble on expression in E. coli": "soluble"}, {"sequence": "MRCIQLYVFYLISQLFTTGSAQKTFHYGVTGGEQFGRHEPSTRLSRFQSTPVSLNPLEDTLRVQQILKKLEDPGGLEIRRRSTSRRLHGVLTEPFGTPLVISGNSSEKKKKKPLKIKKRNGRRNPKSPEVNEYELQLAKQIEEDQLKFVEDEKNPMKYVVENGLLFRQSRYSPLARVEIPPVSGMSEISGISQRTSHSVGQTMQNPPRKRRRKQSYKLKNSKSSSESMFRTNVFRGNINRQIPAIPLPSPFSVAYGKPSFAIAREEDGKCYTNRFGYRCCDEALEALILKSYEKLRRKSNDLEDNLSKIASTLRRDSRQVFAKNLEAIVSTSNFGTSIPSDFSCKVELGPNRFVAQVFVPELGLDAKTTTRRHRIPYHELSREDLSDAADLVVSRNGIIVSKLL", "soluble on expression in E. coli": "not soluble"}, {"sequence": "MRCMTLPAYDIAILGAGPVGRVLALLLARLTPQPQRIALLQGGAGLPPTPAGTLGPAADPRVLALNHGSRVLLESLRAWPAHAAEIRHIHVSQRGRLGRTVIDREDFDVPQLGNVVAYAALHAQLEQAVQDCGVTVLSGPPARVDGQDGEGLTVRQGDAALHCRLAVQCDGAGGSDVRRDYAQHAVLTSAHATLPRSGWAWERFTNEGPLAMLPHPQTPEAYSVVWCCAPPRARRLAGLDDEAFSRELTEAFGTRLGRLRSAAPRHVFPLELKARHAQAHGRLATIGNAAQTLHPVAGQGLNLGLRDAAQLAHALPDWLAAPQADPSPLLATFARARLADRWVTAGLTDLMPRIFATGLAPVEHACGLALLGLDIAAPLRAPLARHLLQGLRVLEHHHHHH", "soluble on expression in E. coli": "soluble"}, {"sequence": "MRDSPTHKEQRAQNTMSDQMPFPFNNFTYFFTLFSKFFSSFHHCTCSLSVSRQYLALDGIYHPLRAAFPNNSTLRRHFTKNRTPRHTGFSPSMTSCSKEHRQGTAPKLPSPNYNSGTEGTRFQI", "soluble on expression in E. coli": "not soluble"}, {"sequence": "MRDVLFLPFADGMELAVAADGSAAVGDKPGDVVSAPADVVAYFAARVALMELVSVGAEAKAVVLQNFIADDRWEALCRGVRRTCRELGIDLPITGSTESNFPTVQSALGVTAIGTVANERKRIGITPEEAKFAVIGRPLVGSAVLSHPEWVAPLPLFAALLRTPYIYELIPIGSKGIYYEWTQLLAANGRQGRACACPLPLFSSGGPATSVLVSYDPDGEREIKKQAGSLFFPLHVEW", "soluble on expression in E. coli": "not soluble"}, {"sequence": "MRDWVIPPISCPENEKGEFPKNLVQIKSNRDKETKVFYSITGQGADKPPVGVFIIERETGWLKVTQPLDREAIAKYILYSHAVSSNGEAVEDPMEIVITVTDQNDNRPEFTQEVFEGSVAEGAVPGTSVMKVSATDADDDVNTYNAAIAYTIVSQDPELPHKNMFTVNRDTGVISVLTSGLDRESYPTYTLVVQAADLQGEGLSTTAKAVITVKDINDNAPVFNPS", "soluble on expression in E. coli": "soluble"}, {"sequence": "MREIVHVQAGQCGNQIGAKFWEVISDEHGIQPDGTYKGESDLQLERINVYYNEANGGKYVPRAVLVDLEPGTMDSVRSGPFGQLFRPDNFVFGQSGAGNNWAKGHYTEGAELVDNVLDVVRKEAEGCDCLQGFQLTHSLGGGTGSGMGTLLISKIREEYPDRIMSSFSVVPSPKVSDTVVEPYNATLSVHQLVENTDETFCIDNEALYDICFRTLKLSNPTYGDLNHLVSVTMSGVTTCLRFPGQLNADLRKLAVNMVPFPRLHFFMPGFAPLSAKGAQAYRALTVAELTQQMFDAKNMMAACDPRHGRYLTVAAMFRGRMSMREVDDQMMNVQNKNSSYFVEWIPNNVKTAVCDIPPRGLKMSATFIGNSTAIQELFKRISEQFTAMFRRKAFLHWYTGEGMDEMEFTEAESNMNDLVSEYQQYQEATAEEDGELDGTDGDAE", "soluble on expression in E. coli": "not soluble"}, {"sequence": "MRERKKYGKHIPKSLSSKINKRKLIQKNICTNYKTIKIIDIYENLPYNQLNNGRTKIKEIILANDVLVVLLISGISRAYNMINGEFLCEINPNNFSVVHTIVYNSYNNTLIIAYASFPAHLQCKVIDCNDLKHGITNSSKLGILFGT", "soluble on expression in E. coli": "not soluble"}, {"sequence": "MRFGEGSAKPIVSAATYGVGGNAFAQAIADPVSTVHSNKPELLVVDGYNVIHCTPRYEKLVYDHSDDPYSSDVHDMARTALINDVAAFAQGRYEAVIVFDGAGNISSERPNLPARGVRIEFSPTGVSADTVVQKLCIEAREEGRACSVVSSDGTIQAVVMGKGVTRISSRMLVDEIKQIDNDVHEAEEAPQIKMTLEHHHHHH", "soluble on expression in E. coli": "soluble"}, {"sequence": "MRFLTAGESHGPELLAIIEGLPAGLPLSEEDINPWLEKRQKGYGRGRRMVIERDRVEFRAGVRGGRTTGAPVALAIKNADFKNWAEIMDPAPGNWPRKRALTAARPGHADLAGGMKYGHKDLRDVLERASARETAMRVAVGAVALKLLSLLGVEGVGYVPGMAGVWAKVPFSWDLVPRIEESPLRMTDPEAEAEAIRRIDQAKAEGDTLGGIIEARFRGLVPGLGSHVHWDRKLDGRLAQMALSIPAVKGVEIGPAFENAMKRGSEVHDAIYWSPERGFYRKTNRAGGLEGGMTTGEELVVRAALKPIATLMKPLPTVDVVTHEPKDAARERSDTTAVPAASVILCALSAIVLAQAYLEKFGGDTMEEIQERVERYRERVRAY", "soluble on expression in E. coli": "soluble"}, {"sequence": "MRGEKRTFEMLTNEVEYQHYRFSFANNPATAAGIFQLAEIELTVVADAPLVDFASNISRAEIGENVQFWDRSLANPTGWQWTFEDGEPATSTNRNPAVTFTSLGAKSVTLVASNDKGSNEKVQEQVVHIWDSQNPWAGYVKPTVTLVAHKPEHEGQIAFSRVMPDIEAVIHDISLQIVKVLYKDVAEAPLFKTVTFETDEYDFPAAKSGTDEDMILMMDVAHLANKAAEGDDALRDEVIGMLWHELTHGYNNSPNSGEYATGDEYHSYLESLANYMRIKAGFHESRRVGIKWVDNWNVDAYEQTSFFLEWVANSHRSVDFIYLFNKAAGDLKEWSFEAAFKSIFGEDKGVSIFWQEYHDAQGIEPPYPTPVDGYRNFAVDEGVSISTNATTVIIPDWDAYEGEDKLIDNNVTKKFNAFIEGTWWLEEHASHLFPINDITNVEVTFELPDAIVLHKYSVTTGNDNPQRDPTLWTISGSVDGEVWTQLDSDNYPSDPERLITFHYDIDDAVTAYKYYQFVFENTQPAGDSIGGDNGRLVQIGEIALLTEELEHHHHHH", "soluble on expression in E. coli": "not soluble"}, {"sequence": "MRGRQKIAIVGAGLGGAAAATLLQQAGFDVEVFEQAPAFTRLGAGIHIGPNVMKIFRRMGLEQKLELMGSHPDFWFSRDGNTGDYLSRIPLGEFARREYGAAYITIHRGDLHALQIEAIQPGTVHFGKRLEKIVDEGDQVRLDFADGTHTVADIVIGADGIHSKIREELLGAEAPIYSGWVAHRALIRGVNLAQHADVFEPCVKWWSEDRHMMVYYTTGKRDEYYFVTGVPHEAWDFQGAFVDSSQEEMRAAFEGYHPTVQKLIDATESITKWPLRNRNPLPLWSRGRLVLLGDACHPMKPHMAQGACMAIEDAAMLTRCLQETGLSDHRTAFALYEANRKERASQVQSVSNANTWLYSQEDPAWVYGYDLYGQQLESGEAALEHHHHHH", "soluble on expression in E. coli": "soluble"}, {"sequence": "MRGSHHHHHHGIRMRARYPAFSVNYDSSFGGYSIHDYLGQWASTFGDVNHTNGNVTDANSGGFYGGSLSGSQYAISSTANQVTAFVAGGNLTYTLFNEPAHTLYGQLDSLSFGDGLSGGDTSPYSIQVPDVSFGGLNLSSLQAQGHDGVVHQVVYGLMSGDTGALETALNGILDDYGLSVNSTFDQVAAATAVGVQHADSPELLAA", "soluble on expression in E. coli": "soluble"}, {"sequence": "MRGSHHHHHHGMTIFEKKPDFTLFLQTLSWEIDDQVGIEVRNELLREVGRGMGTRIMPPPCQTVDKLQIELNALLALIGWGTVTLELLSEDQSLRIVHENLPQVGSAGEPSGTWLAPVLEGLYGRWVTSQAGAFGDYVVTRDVDAEDLNAVPRQTIIMYMRVRSSAT", "soluble on expression in E. coli": "soluble"}, {"sequence": "MRGSHHHHHHGSDLGKKLLEAARAGQDDEVRILIANGADVNAVDNTGLTPLHLAAVSGHLEIVEVLLKHGADVDAADVYGFTPLHLAAMTGHLEIVEVLLKYGADVNAFDMTGSTPLHLAADEGHLEIVEVLLKYGADVNAQDKFGKTAFDISIDNGNEDLAKSCRN", "soluble on expression in E. coli": "soluble"}, {"sequence": "MRGSHHHHHHGSLMPGGKEFYNFYPEYVVGLQWMGDNYVFIEGDDLVFNKANGKSAQTTRFSAADLNALMPEGCKFQTTDAFPSFRTLDAGRGLVVLFTQGGLVGFDMLARKVTYLFDTNEETASLDFSPVGDRVAYVRNHNLYIARGGKLGEGMSRAIAVTIDGTETLVYGQAVHQREFGIEKGTFWSPKGSCLAFYRMDQSMVKPTPIVDYHPLEAESKPLYYPMAGTPSHHVTVGIYHLATGKTVYLQTGEPKEKFLTNLSWSPDENILYVAEVNRAQNECKVNAYDAETGRFVRTLFVETDKHYVEPLHPLTFLPGSNNQFIWQSRRDGWNHLYLYDTTGRLIRQVTKGEWEVTNFAGFDPKGTRLYFESTEASPLERHFYCIDIKGGKTKDLTPESGMHRTQLSPDGSAIIDIFQSPTVPRKVTVTNIGKGSHTLLEAKNPDTGYAMPEIRTGTIMAADGQTPLYYKLTMPLHFDPAKKYPVIVYVYGGPHAQLVTKTWRSSVGGWDIYMAQKGYAVFTVDSRGSANRGAAFEQVIHRRLGQTEMADQMCGVDFLKSQSWVDADRIGVHGWAYGGFMTTNLMLTHGDVFKVGVAGGPVIDWNRYEIMYGERYFDAPQENPEGYDAANLLKRAGDLKGRLMLIHGAIDPVVVWQHSLLFLDACVKARTYPDYYVYPSHEHNVMGPDRVHLYETITRYFTDHL", "soluble on expression in E. coli": "soluble"}, {"sequence": "MRGSHHHHHHGSLVPRGSMVAADAPAAGTDITNQLTNVTVGIDSGTTVYPHQAGYVKLNYGFSVPNSAVKGDTFKITVPKELNLNGVTSTAKVPPIMAGDQVLANGVIDSDGNVIYTFTDYVNTKDDVKATLTMPAYIDPENVKKTGNVTLATGIGSTTANKTVLVDYEKYGKFYNLSIKGTIDQIDKTNNTYRQTIYVNPSGDNVIAPVLTGNLKPNTDSNALIDQQNTSIKVYKVDNAADLSESYFVNPENFEDVTNSVNITFPNPNQYKVEFNTPDDQITTPYIVVVNGHIDPNSKGDLALRSTLYGYNSNIIWRSMSWDNEVAFNNGSGSGDGIDKPVVPEQPDEPGEIEPIPEK", "soluble on expression in E. coli": "soluble"}]}]}
